Test results reported in patent publication US20100113355A1.

Key:
[1] = target: T1, Biotin-… antigenic peptide (epitope sequence from candidal Hsp90) (Candida ("candidal Hsp90")); assay: ELISA, biotinylated hsp90 peptide on streptavidin plate, anti-His-HRP detection; % activity against Mycograb reference standard; site 2; sample in 50 mM Tris, 3 mM DTT, pH 9.0
[2] = target: T1, Biotin-… antigenic peptide (epitope …); assay: ELISA, biotinylated hsp90 peptide on streptavidin plate, anti-His-HRP detection; % activity against Mycograb reference standard; site 2; sample in 50 mM Tris, 1 M sucrose, ~0.2% Tween20, 3 mM DTT, pH 3.0
[3] = target: T1, Biotin-… antigenic peptide (epitope …); assay: ELISA, biotinylated hsp90 peptide on streptavidin plate, anti-His-HRP detection; % activity against Mycograb reference standard; site 1; sample in 50 mM Tris, 1 M sucrose, ~0.2% Tween20, 3 mM DTT, pH 3.0
[4] = target: T1, Biotin-… antigenic peptide (epitope …); assay: ELISA, biotinylated hsp90 peptide on streptavidin plate, anti-His-HRP detection; % activity against Mycograb reference standard; site 2; sample in 50 mM Tris, pH 9.0
[5] = target: T1, Biotin-… antigenic peptide (epitope …); assay: ELISA, biotinylated hsp90 peptide on streptavidin plate, anti-His-HRP detection; % activity against Mycograb reference standard; site 2; sample in 0.5 M urea, 0.2 M L-arginine pH 9.5
[6] = target: T1, Biotin-… antigenic peptide (epitope …); assay: ELISA, biotinylated hsp90 peptide on streptavidin plate, anti-His-HRP detection; % activity against Mycograb reference standard; site 1; sample in 0.5 M urea, 0.2 M L-arginine pH 9.5
[7] = target: T1, Biotin-… antigenic peptide (epitope …); assay: ELISA, biotinylated hsp90 peptide on streptavidin plate, anti-His-HRP detection; % activity against Mycograb reference standard; site 1; sample in 50 mM Tris, 3 mM DTT, pH 9.0
[8] = target: T1, Biotin-… antigenic peptide (epitope …); assay: ELISA, biotinylated hsp90 peptide on streptavidin plate, anti-His-HRP detection; % activity against Mycograb reference standard; site 1; sample in 50 mM Tris, pH 9.0

B1: MYC123 ("wild type" Mycograb) scFv peptide (scFv)
scFv: MAEVQLVESGAEVKKPGESLRISCKGSGCIISSYWISWVRQMPGKGLEWMGKIDPGDSYINYSPSFQGHVTISADKSINTAYLQWNSLKASDTAMYYCARGGRDFGDSFDYWGQGTLVTVSSGGGGSGGGGSGGGGSDVVMTQSPSFLSAFVGDRITITCRASSGISRYLAWYQQAPGKAPKLLIYAASTLQTGVPSRFSGSGSGTEFTLTINSLQPEDFATYYCQHLNSYPLTFGGGTKVDIKRAAALEHHHHHH
[1]
  ELISA Site 2 [%] (activity compared with the reference): 131%
[2]
  ELISA Site 2 [%] (activity compared with the reference): 130%
[3]
  ELISA Site 1 [%] (activity compared with the reference): 135%
[4]
  ELISA Site 2 [%] (activity compared with the reference): 95%
[5]
  ELISA Site 2 [%] (activity compared with the reference): 78%
[6]
  ELISA Site 1 [%] (activity compared with the reference): 90%
[7]
  ELISA Site 1 [%] (activity compared with the reference): 85%
[8]
  ELISA Site 1 [%] (activity compared with the reference): 71%
